Test results as given in paper PMC5159555 (Nucleic Acids Research, 2016).
Positions count from the first letter of the chain named. Numbers in names are those of the source. Read-outs that look alike come from different tables or passages of the source. Each block holds one binder with its values, some of them ahead of it.

Key:
chicken FANCD2 = chicken FANCD2 (chicken, UniProt Q68Y81 1-1439); experiment: SEC
[1] = target: T1, His6-tagged chicken FANCI (chicken, UniProt B0I564 1-1338); experiment: pull-down
T1 sequence (looked up): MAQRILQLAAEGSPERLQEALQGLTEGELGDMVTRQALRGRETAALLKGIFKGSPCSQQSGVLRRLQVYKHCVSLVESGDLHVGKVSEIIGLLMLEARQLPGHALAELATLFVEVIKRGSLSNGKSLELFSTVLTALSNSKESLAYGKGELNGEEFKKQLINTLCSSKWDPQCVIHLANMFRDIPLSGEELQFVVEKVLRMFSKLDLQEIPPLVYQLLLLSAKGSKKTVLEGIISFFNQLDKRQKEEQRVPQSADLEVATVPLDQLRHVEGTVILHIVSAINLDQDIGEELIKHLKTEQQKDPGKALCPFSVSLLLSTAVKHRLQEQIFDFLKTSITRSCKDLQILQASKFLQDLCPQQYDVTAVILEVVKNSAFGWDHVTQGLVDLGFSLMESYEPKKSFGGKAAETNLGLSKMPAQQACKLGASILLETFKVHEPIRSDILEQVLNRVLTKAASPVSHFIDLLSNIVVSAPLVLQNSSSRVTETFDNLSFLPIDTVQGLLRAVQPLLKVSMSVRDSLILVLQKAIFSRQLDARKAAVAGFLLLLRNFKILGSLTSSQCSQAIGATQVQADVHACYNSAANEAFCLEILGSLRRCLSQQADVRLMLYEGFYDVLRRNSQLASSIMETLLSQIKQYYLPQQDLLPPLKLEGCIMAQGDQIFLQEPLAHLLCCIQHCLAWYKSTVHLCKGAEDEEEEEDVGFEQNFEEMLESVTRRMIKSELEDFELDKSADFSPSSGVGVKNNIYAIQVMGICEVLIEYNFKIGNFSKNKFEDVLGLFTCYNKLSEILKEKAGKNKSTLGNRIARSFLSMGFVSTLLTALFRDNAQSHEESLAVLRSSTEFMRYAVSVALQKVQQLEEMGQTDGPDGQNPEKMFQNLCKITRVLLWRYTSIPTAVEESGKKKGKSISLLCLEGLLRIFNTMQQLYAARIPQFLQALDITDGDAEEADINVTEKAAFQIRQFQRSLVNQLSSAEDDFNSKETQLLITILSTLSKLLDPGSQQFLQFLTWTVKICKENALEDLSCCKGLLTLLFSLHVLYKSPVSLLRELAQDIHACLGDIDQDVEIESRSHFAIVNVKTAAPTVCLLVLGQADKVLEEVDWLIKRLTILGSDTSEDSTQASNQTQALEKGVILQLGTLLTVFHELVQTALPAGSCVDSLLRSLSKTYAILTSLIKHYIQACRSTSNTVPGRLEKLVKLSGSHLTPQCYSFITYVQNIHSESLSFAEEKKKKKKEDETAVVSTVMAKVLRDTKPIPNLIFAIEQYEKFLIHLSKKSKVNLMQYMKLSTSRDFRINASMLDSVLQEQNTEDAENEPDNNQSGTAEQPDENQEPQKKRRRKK

[2] = target: His6-tagged chicken FANCD2 (chicken, UniProt Q68Y81 1-1439); experiment: pull-down
His6-tagged chicken FANCD2, sequence (Q68Y81 whole entry): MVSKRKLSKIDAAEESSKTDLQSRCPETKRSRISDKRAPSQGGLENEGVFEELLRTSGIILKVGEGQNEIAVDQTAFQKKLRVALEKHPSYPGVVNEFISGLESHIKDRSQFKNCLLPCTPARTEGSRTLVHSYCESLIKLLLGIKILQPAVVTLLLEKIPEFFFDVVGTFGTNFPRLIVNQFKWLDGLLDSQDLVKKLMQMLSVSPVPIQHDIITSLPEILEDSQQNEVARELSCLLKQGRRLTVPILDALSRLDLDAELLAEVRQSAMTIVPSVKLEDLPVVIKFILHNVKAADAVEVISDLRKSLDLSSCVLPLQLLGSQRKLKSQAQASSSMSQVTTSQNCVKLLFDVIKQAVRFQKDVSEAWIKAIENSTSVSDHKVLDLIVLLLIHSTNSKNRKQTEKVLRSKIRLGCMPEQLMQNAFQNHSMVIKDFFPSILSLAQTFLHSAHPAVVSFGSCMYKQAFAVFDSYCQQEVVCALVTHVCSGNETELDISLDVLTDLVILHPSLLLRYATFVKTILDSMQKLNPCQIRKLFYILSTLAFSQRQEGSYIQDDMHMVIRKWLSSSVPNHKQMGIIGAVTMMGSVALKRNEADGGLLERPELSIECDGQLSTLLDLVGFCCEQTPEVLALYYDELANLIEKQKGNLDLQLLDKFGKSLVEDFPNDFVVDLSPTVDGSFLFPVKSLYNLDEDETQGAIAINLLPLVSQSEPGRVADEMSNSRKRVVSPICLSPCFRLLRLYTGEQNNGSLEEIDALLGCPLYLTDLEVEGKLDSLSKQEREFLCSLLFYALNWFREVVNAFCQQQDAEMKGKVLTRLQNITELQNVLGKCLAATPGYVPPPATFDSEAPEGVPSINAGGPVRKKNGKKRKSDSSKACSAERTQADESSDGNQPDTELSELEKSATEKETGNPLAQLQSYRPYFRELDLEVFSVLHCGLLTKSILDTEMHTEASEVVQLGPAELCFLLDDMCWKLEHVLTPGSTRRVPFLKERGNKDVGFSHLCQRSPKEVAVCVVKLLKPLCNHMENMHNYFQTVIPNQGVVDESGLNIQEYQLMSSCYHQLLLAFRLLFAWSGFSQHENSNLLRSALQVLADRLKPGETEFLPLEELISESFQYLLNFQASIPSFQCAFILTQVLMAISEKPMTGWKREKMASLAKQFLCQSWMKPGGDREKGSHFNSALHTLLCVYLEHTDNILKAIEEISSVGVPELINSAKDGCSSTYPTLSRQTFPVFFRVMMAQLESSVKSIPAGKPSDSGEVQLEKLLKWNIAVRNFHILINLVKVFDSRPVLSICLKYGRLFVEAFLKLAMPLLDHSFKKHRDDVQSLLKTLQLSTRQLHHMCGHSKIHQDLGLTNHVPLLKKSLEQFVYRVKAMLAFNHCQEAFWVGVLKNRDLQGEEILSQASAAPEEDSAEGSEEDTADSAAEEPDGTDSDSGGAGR

[3] = target: His6-tagged FANCD2 complexed with FANCI (chicken, UniProt Q68Y81 1-1439; B0I564 1-1338); experiment: pull-down
His6-tagged FANCD2 complexed with FANCI, sequence (Q68Y81 whole entry, one chain of several): as the sequence (Q68Y81 whole entry) above

[4] = target: T2, FANCI-FANCD2 (I-D) complex (chicken, UniProt B0I564 1-1338; Q68Y81 1-1439); experiment: pull-down
T2 sequence (Q68Y81 whole entry, one chain of several): as the sequence (Q68Y81 whole entry) above

[5] = target: T2, FANCI-FANCD2 (I-D) complex; experiment: pull-down; remark: listed apart in the source

chicken FANCD2, sequence (Q68Y81 whole entry): as above

binding result (chicken FANCD2): binds
B1: chicken FANCI (natural protein, UniProt B0I564 1-1338, looked up)
chain: T1 sequence (looked up)

binding result [1]: binds | binding result [2]: binds | binding result [3]: binds | binding result [4]: binds
B2: chicken RAD51 (natural protein, UniProt P37383 1-339, looked up)
chain: MAMQVQFEASTDTSAEEESFGPEPISRLEQCGINANDVKKLEEAGYHTVESVAHAPKKELLNIKGISEAKADKILAEAAKLVPMGFTTATEFHQRRSEIIQITTGSKELDKLLQGGIETGSITELFGEFRTGKTQLCHTLAVTCQLPIDRGGGEGKAMYIDTEGTFRPERLLAVAERYGLSGSDVLDNVAYARGFNTDHQTQLLYQASAMMAESRYALLIVDSATALYRTDYSGRGELSARQMHLARFLRMLLRLADEFGVAVVITNQVVAQVDGAAMFAADPKKPIGGNIIAHASTTRLYLRKGRGETRICKIYDSPCLPEAEAMFAINADGVGDAKE

binding result [5]: binds
B3: His6-tagged chicken RAD51 F86E mutant (natural protein, UniProt P37383 1-339, looked up)
chain: B2 chain with F86E

binding result [5]: binds
B4: His6-tagged chicken RAD51 (natural protein, UniProt P37383 1-339, looked up)
chain: B2 chain
